According to patent US20180036395A1, “DOSAGE AND ADMINISTRATION OF MONOSPECIFIC AND BISPECIFIC ANTI-IGR-1R AND ANTI-ERBB3 ANTIBODIES” (Merrimack Pharmaceuticals, Inc., priority 2012, published 2018):

How the values were obtained:
[1] = test system: locally advanced or metastatic breast cancer; test: Treatment of patients with locally advanced or metastatic breast cancer; assay type: in vivo, human
Protocol: (§1) P4-G1-M1.3 is formulated in 20 mM histidine, 100 mM arginine-HCl, 3% sucrose, at pH 5.5 supplemented with 0.002-0.02% of Tween® 80 at concentration range 5-15 mg/mL. P4-G1-M1.3 is administered to patients at 6 mg/kg, 12 mg/kg, 20 mg/kg, 30 mg/kg, 40 mg/kg, 50 mg/kg or 60 mg/kg q7d, ql4d, q21d, or q28d with a loading dose of 12 mg/kg, 20 mg/kg, 40 mg/kg, 40 mg/kg or 60 mg/kg Everolimus is administered to patients at 2.5 mg, 5 mg, or 10 mg orally once a day or once every other day.
Patients with estrogen receptor positive or progesterone receptor positive or triple negative breast cancers that are locally advanced or metastatic, or with any of the tumor types listed in Examples 5-10, are treated with a combination of an effective amount of i) any of the mTOR inhibitors of the preceding examples (at doses as described therein), or with a pan-mTOR inhibitor (INK128, CC223, OSI207, AZD8055, AZD2014, or Palomid529) and ii) an effective amount of P4-G1-M1.3. Patients are dosed with P4-G1-M1.3 as described in Example 1. The dose of pan-mTOR inhibitor is the dose used in phase I or, preferably phase II or III clinical trials.
Postmenopausal women with estrogen receptor-positive locally advanced or metastatic breast cancer are treated with a combination of an effective amount of PI3K inhibitor (e.g., XL147 or BKM120) and an effective amount of P4-G1-M1.3. Patients are dosed with P4-G1-M1.3 as described in Example 1. XL147 is dosed at 25, 50, 100, or 200 mg orally once a day for 21 consecutive days. Alternately BKM120 is dosed at […] orally once a day for 28 consecutive days.
Women with estrogen or progesterone receptor positive locally advanced or metastatic breast cancer are treated with a combination therapy comprising or consisting of administration of an effective amount of an antihormonal therapy (such as tamoxifen, exemestane, letrozole or fulvestrant) and administration of an effective amount of P4-G1-M1.3. P4-G1-M1.3 is formulated and administered as described above. Antihormonal therapy is administered in accordance with manufacturer's directions.
Women with estrogen or progesterone receptor positive locally advanced or metastatic breast cancer are treated with a combination of an effective amount of PI3K/mTOR dual inhibitor NVP-BEZ235 and an effective amount of P4-G1-M1.3. Patients are dosed with P4-G1-M1.3 as described in Example 1. NVP-BEZ235 is given orally twice daily at doses of 400 mg, 600 mg, or 800 mg.
Women with locally advanced or metastatic breast cancer are treated with a combination of an effective amount of docetaxel (Taxotere®) and an effective amount of P4-G1-M1.3. Patients are dosed with P4-G1-M1.3 as described in Example 1. Patients are dosed with docetaxel at 25, 50, 75 or 100 mg/m^2 i.v. once every 3 weeks or per standard clinical practice.
Patients with metastatic breast cancer are treated with a combination of an effective amount of paclitaxel (Taxol®) or of eribulin and an effective amount of P4-G1-M1.3. Patients are dosed with P4-G1-M1 as described in Example 1. Patients are dosed per standard clinical practice for paclitaxel or eribulin.

[2] = test system: KP4 cells; test: In vitro signaling ELISA, KRAS mutant cells; assay type: cell-based, human; conditions: combination 500 nM P4-G1-M1.3 + 250 nM GSK1120212, 24 hours, 10% serum, FIG. 3
Protocol: Cells were treated with 500 nM P4-G1-M1.3, 250 nM GSK1120212 or the combination for 24 hours in 10% serum and ELISA assays were performed. The data was normalized to 10% serum without treatment.
The preclinical models to support this example are performed using BxPC-3 (KRAS wild-type) and KP4 (KRAS mutant) cell lines.

[3] = test system: non-small cell lung cancer (NSCLC); test: Treatment of patients with non-small cell lung cancer; assay type: in vivo, human; conditions: everolimus + P4-G1-M1.3
Protocol: as §1
(§2) Patients with non-small cell lung cancer (NSCLC) are treated by administration of either monotherapy with an effective amount of everolimus or an effective amount of P4-G1-M1.3, or with combination therapy comprising or consisting of administration of both the effective amount of everolimus and the effective amount of P4-G1-M1.3. P4-G1-M1.3 and everolimus are prepared and dosed as described in Example 1.

[4] = test system: gastrointestinal neuroendocrine tumors; test: Treatment of patients with gastrointestinal neuroendocrine tumors; assay type: in vivo, human
Protocol: as §1
as §2, with “gastrointestinal neuroendocrine tumors” for “non-small cell lung cancer (NSCLC)”
Patients with gastrointestinal neuroendocrine tumors are treated by administration of either monotherapy with an effective amount of mTOR inhibitor temsirolimus (Torisel®) or an effective amount of P4-G1-M1.3, or with combination therapy comprising or consisting of administration of both the effective amount of temsirolimus and the effective amount of P4-G1-M1.3. P4-G1-M1.3 is prepared and dosed as described in Example 1. Temsirolimus is dosed at 2.5 mg, 7.5 mg, 15 mg, or 25 mg (25 mg is the manufacturer's recommended dose) infused over a 30-60 minute period once a week.
Patients with gastrointestinal neuroendocrine tumors are treated by administration of either monotherapy with an effective amount of mTOR inhibitor sirolimus (Rapamune®) or an effective amount of P4-G1-M1.3, or with combination therapy comprising or consisting of administration of both the effective amount of sirolimus and the effective amount of P4-G1-M1.3. P4-G1-M1.3 is prepared and dosed as described in Example 1.

B1: P4-G1-M1.3: anti-IGF-1R+anti-ErbB3 polyvalent bispecific antibody, IgG1-(scFv)2 (SEQ ID NO:148 and SEQ ID NO:149) (protein)
chain 1: EVQLLQSGGGLVQPGGSLRLSCAASGFLFSSYPMHWVRQAPGKGLEWVGSISPSGGATPYADSVKGRFTISRDNSKNTLYLQMNSLRPEDTAVYYCAKDFYNILTGNAFDKWGQGTSVTVSSASTGGGGSGGGGSGGGGSGGGGSDIQLTQSPSSLSASLGDRVTITCRASQGISSYLAWYQQKPGKAPKLLIYAGSTPQSGVPSRFSGSGSGTEFTLTISSLQPEDSGTYYCQQYWTWPLTFGGGTKVEIKRT
chain 2: EVQLVESGGGLVQPGRSLRLSCAASGFTFDDYAMHWVRQAPGKGLEWVSGISWNSGSTGYADSVKGRFTISRDNAKNSLYLQMNSLRAEDTALYYCARDLGYNQWLEGFDYWGQGTLVTVSSASTGGGGSGGGGSGGGGSGGGGSSSELTQDPAVSVALGQTVRITCQGDSLRSYYASWYQQKPGQAPVLVIYGKNNRPSGIPDRFSGSSSGNTASLTITGAQAEDEADYYCMSRDHPGNQWVFGGGTKVTVLG
modifications: Synthetic polypeptide:Anti-IGF-1R scFvs M76; Synthetic polypeptide:Anti-ErbB3 scFvs P6L
In the case of B1, the treatment outcome ([1]; ER or PR positive breast cancer, NVP-BEZ235 + P4-G1-M1.3) is reported as “combinatorially enhanced outcome”, the treatment outcome ([1]; ER or PR positive breast cancer, antihormonal therapy (tamoxifen, exemestane, letrozole or fulvestrant) + P4-G1-M1.3) is reported as “combinatorially enhanced outcome” and the treatment outcome ([1]; ER positive, PR positive or triple negative breast cancers (or tumor types of Examples 5-10), mTOR or pan-mTOR inhibitor + P4-G1-M1.3) is reported as “combinatorially enhanced outcome”. For the same molecule, the treatment outcome ([1]; metastatic breast cancer, paclitaxel or eribulin + P4-G1-M1.3) was “combinatorially enhanced outcome”, the treatment outcome ([1]; postmenopausal women, ER-positive breast cancer, PI3K inhibitor (XL147 or BKM120) + P4-G1-M1.3) was “combinatorially enhanced outcome” and the treatment outcome ([1]; women with locally advanced or metastatic breast cancer, docetaxel + P4-G1-M1.3) was “combinatorially enhanced outcome”. For the same molecule, the “signaling (pAkt Ser473, pERK)” value [2] was “inhibition of signaling”, the treatment outcome [3] was “combinatorially enhanced outcome” and the treatment outcome ([4]; everolimus + P4-G1-M1.3) was “combinatorially enhanced outcome”. For the same molecule, the treatment outcome ([4]; sirolimus + P4-G1-M1.3) was “combinatorially enhanced outcome” and the treatment outcome ([4]; temsirolimus + P4-G1-M1.3) was “combinatorially enhanced outcome”.
